Patent US11389568B2, “Tyrosine peptide cross-linked biocompatible hydrogel and method of production” (SEOUL NATIONAL UNIVERSITY R&DB FOUNDATION, priority 2016, dated 2022)
Ends that are not written are not given here.

What was measured:
[1] = system: fibroblasts; assay: Cytotoxicity test by MTT assay; format: cell-based; settings: riboflavin 0.1 μM-10 mM, YC7 0.1 μM-1 mM, 24 hr at 37° C.
Method: To investigate the biocompatibility of the hydrogels, fibroblasts were used in a cytotoxicity test. Fibroblasts were seeded with the density of 4×10^4/well in 24 well plates. […] Finally, cell toxicity was evaluated by MTT assay. Fibroblasts were grown with the density of 1×10^5/well in 12 well dishes to test their proliferation in different hydrogels. The grown cells area was scratched using pipette tips to create a wound-like environment and the hydrogels were added to 12 transwells, which were then placed in the dishes where cells had been grown. The proliferation effect of cells was evaluated depending on the degree of cell filling in the scratches.

[2] = Storage modulus (G′) by rheometer; format: physicochemical; settings: for storage modulus (G′), comparison in words: at 30 rad/s
Method: The crosslinking time and storage modulus (G′) were analyzed using a rheometer. Hydrogel samples with 20 mm diameter and 5 mm thickness were prepared. The crosslinking time was measured over time at an oscillation frequency of 1 Hz and a stress sweep of 10 Pa. The storage modulus was measured at an oscillation frequency of 1 Hz and a stress sweep of 1-100 Pa. All measurements were performed in triplicate and averaged.
Specifically, the storage modulus G′ was obtained by oscillatory shear measurements at room temperature using a constant stress rheometer (Discovery Hybrid Rheometer-3 from TA Instruments, USA). For the measurements, hydrogel samples with a defined shape of 20 mm diameter and 5 mm thickness were prepared. The cured hydrogel was placed on a lower rheometer stage, and an upper rheometer fixture (diameter 20 mm) was lowered until it made contact with the top surface of the sample. The value of G′ was then measured at oscillation frequency 1 Hz in a stress sweep test of 1-100 Pa. This stress sweep was performed in order to determine the limit of the linear viscoelastic range. All the G′ measurements were obtained in triplicate. Error bars in figures represent the standard deviation from the mean value (see FIGS. 7 and 9).
Specifically, it is well known that the mechanical properties of hydrogels are closely related to the crosslinking density. The storage modulus (G′) measured by rheological analysis is a reliable value representing the rigidity of the subjected hydrogel. The G′ of HA-Ty hydrogel without any peptide addition was 156.6 Pa at a strain of 1% at 30 rad/s (see FIG. 10).

[3] = Swelling test of lyophilized hydrogels in distilled water; format: physicochemical; settings: distilled water at 25° C.
Method: Swelling and degradation tests on the hydrogels were conducted by the following procedures. First, HA hydrogels were photocrosslinked with different peptide sequences (YYACAYY (SEQ ID: 4), di-YYACAYY (SEQ ID: 5), YYAYY (SEQ ID: 7), YYCYY (SEQ ID; 8), and YYAHAYY (SEQ ID: 6), 0.1 mM each). Swelling experiments were performed by measuring the increase in weight of the lyophilized hydrogels. Lyophilized hydrogels were placed in 1 mL distilled water at 25° C. The swelling ratio (S %) of hydrogels in distilled water was calculated using S %=[(Wt−W0]/W0)]100, where Wt is the weight of the swollen hydrogel at time t, and W0 is the weight of the dry gel at time 0. Degradation tests were performed by measuring the weights of hydrogels in PBS containing 0.01 mg/mL hyaluronidase at different time points.

[4] = Solubility of the peptide in hydrogel preparation; format: physicochemical

Substance	storage modulus (G′), comparison in words [2]	also measured
YYACAYY [YC7, YYACAYY]		cytotoxicity [1]: no cytotoxicity
YYAHAYY [YH7, tyrosine-based peptide; the code also labels the HA-Ty hydrogel photocrosslinked with it]	almost the same G′ as HA-Ty	
YYAYY [YA5, tyrosine-based peptide; the code also labels the HA-Ty hydrogel photocrosslinked with it]	higher than that of YH7	
YYCYY [YC5, tyrosine-based peptide; the code also labels the HA-Ty hydrogel photocrosslinked with it]	higher than that of YH7	
di-YYACAYY (YYACAYYYYACAYY; cysteine pairing not given here; also: dimer of YYACAYY) [DYC7, tyrosine-based peptide; the code also labels the HA-Ty hydrogel photocrosslinked with it]	highest G′	swelling ratio, comparison in words [3]: slightly higher than that of YC7; storage modulus (G′) ([2]; strain of 1% at 30 rad/s, peptide 0.1 mM): 297.6 Pa; solubility [4]: partial insolubility
